PMC8512545, “Chitinase Chit62J4 Essential for Chitin Processing by Human Microbiome Bacterium Clostridium paraputrificum J4” (Molecules, 2021)

System: CC(=O)N[C@H]1[C@H](Oc2ccc([N+](=O)[O-])cc2)O[C@H](CO)[C@@H](O[C@@H]2O[C@H](CO)[C@@H](O)[C@H](O)[C@H]2NC(C)=O)[C@@H]1O
Test: purified protein
Assay type: biochemical, Clostridium paraputrificum
Details: 0.1 M citric acid-potassium phosphate pH 5.5, 37 °C

With rChit62J4 (Clostridium paraputrificum) the Km (no added compound) was 240 ± 20 µM and the kcat (no added compound) was 31.5 ± 0.9 s⁻¹.

With “crChit62J4 (crude/isolated Chit62J4) (Clostridium paraputrificum)” the Km (native enzyme) was 570 µM and the kcat (native enzyme) was 13.5 s⁻¹.

With “rChit62J4cat (Clostridium paraputrificum)” the Km (no added compound) was 190 ± 20 µM and the kcat (no added compound) was 31.4 ± 0.8 s⁻¹.
